What was measured:
Format in all cases: biochemical
[1] = target: T1, EphB3 (Homo sapiens, UniProt P54753); assay: TR-FRET kinase assay, EphB3; details: Kinase Concentration 0.1 nM; 50 nM ULight-labeled substrate, 200 micromolar ATP, 2 hours
T1 sequence (P54753 34-998): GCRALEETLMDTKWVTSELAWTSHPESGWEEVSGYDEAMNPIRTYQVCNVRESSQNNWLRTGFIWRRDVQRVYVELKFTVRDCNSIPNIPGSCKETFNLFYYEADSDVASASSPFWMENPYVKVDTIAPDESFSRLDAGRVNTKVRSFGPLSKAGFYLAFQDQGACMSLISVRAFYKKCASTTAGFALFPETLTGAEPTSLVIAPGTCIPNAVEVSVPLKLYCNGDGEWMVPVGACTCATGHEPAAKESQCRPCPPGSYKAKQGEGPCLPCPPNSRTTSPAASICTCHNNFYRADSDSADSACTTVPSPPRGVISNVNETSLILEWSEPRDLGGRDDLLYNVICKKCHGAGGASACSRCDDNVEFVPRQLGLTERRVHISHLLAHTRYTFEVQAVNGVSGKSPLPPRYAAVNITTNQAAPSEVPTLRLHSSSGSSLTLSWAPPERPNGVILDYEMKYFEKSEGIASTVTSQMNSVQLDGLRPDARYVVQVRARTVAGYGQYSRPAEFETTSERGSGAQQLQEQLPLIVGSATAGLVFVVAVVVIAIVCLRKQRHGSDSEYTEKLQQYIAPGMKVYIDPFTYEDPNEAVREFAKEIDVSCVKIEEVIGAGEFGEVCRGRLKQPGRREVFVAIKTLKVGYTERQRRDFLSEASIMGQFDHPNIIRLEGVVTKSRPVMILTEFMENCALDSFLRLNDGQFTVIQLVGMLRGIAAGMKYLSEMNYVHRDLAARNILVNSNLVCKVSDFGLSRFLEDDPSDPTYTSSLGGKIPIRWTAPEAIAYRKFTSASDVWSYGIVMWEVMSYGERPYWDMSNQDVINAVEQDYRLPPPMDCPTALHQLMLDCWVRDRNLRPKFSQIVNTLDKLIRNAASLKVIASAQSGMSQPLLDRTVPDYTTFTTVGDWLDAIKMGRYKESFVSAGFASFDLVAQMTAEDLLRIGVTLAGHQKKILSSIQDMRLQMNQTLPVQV
Experimental: (§1) TR-FRET kinase assays are performed under standardized conditions: various individual kinases are incubated with 50 nM of kinase substrate BRB1 labeled with the TR-FRET acceptor dye ULight (PerkinElmer) and 200 micromolar ATP in 10 μL of kinase assay buffer (50 mM HEPES pH7.5, 10 mM MgCl2, 3 mM MnCl2, 1 mM EGTA, 2 mM DTT and 0.01% Tween-20) for 2 hours at room temperature. Reactions are stopped with EDTA, and anti-phospho-tyrosine antibodies (clone PT66) labeled with the TR-FRET europium chelate donor dye are added to a final concentration of 2 nM in a final volume of 20 μL. The TR-FRET signal emitted at 665 nm is read one hour after the addition of antibodies using a TR-FRET plate reader such as the Envision® Multilabel Plate reader (PerkinElmer). The emitted signal at 665 nm is proportional to the extent of peptide phosphorylation, Control reactions indicative of background are performed excluding ATP from the reaction.
(§2) Assay conditions are identical to those used described for FIG. 1.

[2] = target: FGR (Homo sapiens, UniProt P09769); assay: TR-FRET kinase assay, FGR; details: Kinase Concentration 0.1 nM; 50 nM ULight-labeled substrate, 200 micromolar ATP, 2 hours
Experimental: as §1, §2

[3] = target: MET (Homo sapiens, UniProt P08581); assay: TR-FRET kinase assay, MET; details: Kinase Concentration 0.5 nM; 50 nM ULight-labeled substrate, 200 micromolar ATP, 2 hours
Experimental: as §1, §2

[4] = target: TRKA (NTRK1) (Homo sapiens, UniProt P04629); assay: TR-FRET kinase assay, TRKA (NTRK1); details: Kinase Concentration 0.5 nM; 50 nM ULight-labeled substrate, 200 micromolar ATP, 2 hours
Experimental: as §1, §2

[5] = target: LYNb (Homo sapiens, UniProt P07948); assay: TR-FRET kinase assay, LYNb; details: Kinase Concentration 1 nM; 50 nM ULight-labeled substrate, 200 micromolar ATP, 2 hours
Experimental: as §1, §2

[6] = target: RON (Homo sapiens, UniProt Q04912); assay: TR-FRET kinase assay, RON; details: Kinase Concentration 0.25 nM; 50 nM ULight-labeled substrate, 200 micromolar ATP, 2 hours
Experimental: as §1, §2

[7] = target: KIT (Homo sapiens, UniProt P10721); assay: TR-FRET kinase assay, KIT; details: Kinase Concentration 2 nM; 50 nM ULight-labeled substrate, 200 micromolar ATP, 2 hours
Experimental: as §1, §2

[8] = target: Eph4A tyrosine kinase (Homo sapiens, UniProt P54764); assay: Stability of TR-FRET signal at 665 nm in kinase assay; details: for Average Signal at 665 nm: Eph4A 2 nM, 50 nM labeled peptide or 200 nM labeled co-polymer, 50 micromolar ATP
Experimental: as §1
An assay comparing the stability of the random co-polymers poly-EAY, poly-EY and peptide BRB1 (SEQ ID No.3) is performed in 384-well format. Assay conditions are similar to those used in Example 1. The Eph4A tyrosine kinase is assayed at 2 nM with 50 nM of labeled peptide of SEQ ID No. 3, 200 nM labeled poly-EY or 200 nM poly-EAY and 50 micromolar ATP in 10 μL of kinase assay buffer. The reaction mixture is incubated for one hour at room temperature. Reactions are stopped with EDTA, and anti-phospho-tyrosine antibodies (clone PT66) labeled with the TR-FRET europium chelate donor dye are added to a concentration of 2 nM in a final volume of 20 μL. The TR-FRET signal emitted at 665 nm is read one, two, four, 18 and 24 hours after the addition of antibodies using a TR-FRET plate reader.

[9] = target: JAK1 (Homo sapiens, UniProt P23458); assay: TR-FRET kinase assay, JAK1; details: Kinase Concentration 7 nM; 50 nM ULight-labeled substrate, 200 micromolar ATP, 2 hours
Experimental: as §1, §2

[10] = test system: 83 tyrosine kinases; assay: Panel of 83 TR-FRET tyrosine kinase assays; details: 83 tyrosine kinases tested; conditions of Example 1
Experimental: as §1, §2
The BRB2 peptide is tested with 83 tyrosine kinases in assay conditions identical to those used for BRB1 in Example 1. Data obtained with BRB2 indicate that the peptide is phosphorylated by 65 kinases out of 83 (78%), with signal to noise ratio of >3.

[11] = target: FGFR3 (Homo sapiens, UniProt P22607); assay: TR-FRET kinase assay, FGFR3; details: Kinase Concentration 0.25 nM; 50 nM ULight-labeled substrate, 200 micromolar ATP, 2 hours
Experimental: as §1, §2

Chain of Eph4A tyrosine kinase (P54764 20-986): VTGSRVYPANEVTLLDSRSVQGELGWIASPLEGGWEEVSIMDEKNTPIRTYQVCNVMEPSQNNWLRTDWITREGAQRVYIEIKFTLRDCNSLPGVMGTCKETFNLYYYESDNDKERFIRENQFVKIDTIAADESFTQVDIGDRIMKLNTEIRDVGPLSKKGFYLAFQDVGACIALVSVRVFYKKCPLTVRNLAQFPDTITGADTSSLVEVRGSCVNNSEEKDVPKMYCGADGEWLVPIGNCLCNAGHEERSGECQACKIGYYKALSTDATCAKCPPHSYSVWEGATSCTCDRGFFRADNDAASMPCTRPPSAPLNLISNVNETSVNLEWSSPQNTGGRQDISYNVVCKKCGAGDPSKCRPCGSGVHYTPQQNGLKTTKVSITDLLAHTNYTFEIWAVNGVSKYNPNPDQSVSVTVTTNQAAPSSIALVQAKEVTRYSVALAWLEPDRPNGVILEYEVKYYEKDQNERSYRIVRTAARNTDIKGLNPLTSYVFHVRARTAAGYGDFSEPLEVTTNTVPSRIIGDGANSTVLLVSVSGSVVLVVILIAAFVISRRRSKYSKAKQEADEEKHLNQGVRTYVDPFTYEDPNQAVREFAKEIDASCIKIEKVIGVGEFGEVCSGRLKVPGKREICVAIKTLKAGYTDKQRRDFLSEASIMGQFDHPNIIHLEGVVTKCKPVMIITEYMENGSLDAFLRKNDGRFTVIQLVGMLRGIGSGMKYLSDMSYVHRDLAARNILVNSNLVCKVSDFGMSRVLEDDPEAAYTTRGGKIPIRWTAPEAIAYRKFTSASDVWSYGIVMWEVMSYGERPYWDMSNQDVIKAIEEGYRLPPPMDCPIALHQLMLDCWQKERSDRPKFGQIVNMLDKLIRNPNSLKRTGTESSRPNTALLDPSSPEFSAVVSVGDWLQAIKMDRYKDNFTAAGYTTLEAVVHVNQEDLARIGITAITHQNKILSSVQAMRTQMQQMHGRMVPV
Chain of MET (P08581 25-1390): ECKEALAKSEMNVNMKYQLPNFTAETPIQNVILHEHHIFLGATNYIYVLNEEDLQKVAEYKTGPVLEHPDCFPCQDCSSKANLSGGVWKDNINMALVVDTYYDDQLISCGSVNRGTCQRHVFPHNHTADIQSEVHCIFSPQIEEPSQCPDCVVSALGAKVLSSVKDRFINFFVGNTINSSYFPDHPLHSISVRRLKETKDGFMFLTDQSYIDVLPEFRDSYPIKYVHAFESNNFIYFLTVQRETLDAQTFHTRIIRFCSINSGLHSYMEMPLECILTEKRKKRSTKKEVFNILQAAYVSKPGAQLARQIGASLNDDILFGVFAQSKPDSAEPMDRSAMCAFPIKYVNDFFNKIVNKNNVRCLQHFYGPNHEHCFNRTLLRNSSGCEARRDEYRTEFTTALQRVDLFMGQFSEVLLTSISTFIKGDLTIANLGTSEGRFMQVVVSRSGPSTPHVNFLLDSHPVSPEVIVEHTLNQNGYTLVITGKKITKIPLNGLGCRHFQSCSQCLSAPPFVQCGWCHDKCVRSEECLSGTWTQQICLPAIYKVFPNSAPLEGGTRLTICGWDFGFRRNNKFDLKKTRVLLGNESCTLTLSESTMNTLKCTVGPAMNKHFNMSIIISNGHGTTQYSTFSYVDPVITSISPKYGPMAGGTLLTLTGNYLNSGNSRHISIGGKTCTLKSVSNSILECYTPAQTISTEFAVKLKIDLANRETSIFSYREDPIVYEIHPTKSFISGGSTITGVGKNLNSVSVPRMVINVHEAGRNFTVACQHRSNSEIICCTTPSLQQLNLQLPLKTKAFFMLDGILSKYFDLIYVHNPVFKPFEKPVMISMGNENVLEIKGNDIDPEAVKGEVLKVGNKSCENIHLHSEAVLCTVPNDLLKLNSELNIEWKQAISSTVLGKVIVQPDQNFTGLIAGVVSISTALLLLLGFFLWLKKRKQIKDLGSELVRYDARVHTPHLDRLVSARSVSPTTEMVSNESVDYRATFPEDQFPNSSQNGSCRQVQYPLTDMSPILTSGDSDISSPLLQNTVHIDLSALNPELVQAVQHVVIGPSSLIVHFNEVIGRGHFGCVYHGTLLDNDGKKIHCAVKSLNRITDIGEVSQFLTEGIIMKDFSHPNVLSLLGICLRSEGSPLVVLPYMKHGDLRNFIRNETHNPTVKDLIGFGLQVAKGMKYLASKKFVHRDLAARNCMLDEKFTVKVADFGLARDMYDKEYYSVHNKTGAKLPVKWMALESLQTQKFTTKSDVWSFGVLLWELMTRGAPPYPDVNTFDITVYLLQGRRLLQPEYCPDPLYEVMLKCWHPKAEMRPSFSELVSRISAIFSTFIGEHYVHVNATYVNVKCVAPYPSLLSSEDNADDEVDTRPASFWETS
Chain of LYNb (P07948 1-491 isoform P07948-2, species assumed): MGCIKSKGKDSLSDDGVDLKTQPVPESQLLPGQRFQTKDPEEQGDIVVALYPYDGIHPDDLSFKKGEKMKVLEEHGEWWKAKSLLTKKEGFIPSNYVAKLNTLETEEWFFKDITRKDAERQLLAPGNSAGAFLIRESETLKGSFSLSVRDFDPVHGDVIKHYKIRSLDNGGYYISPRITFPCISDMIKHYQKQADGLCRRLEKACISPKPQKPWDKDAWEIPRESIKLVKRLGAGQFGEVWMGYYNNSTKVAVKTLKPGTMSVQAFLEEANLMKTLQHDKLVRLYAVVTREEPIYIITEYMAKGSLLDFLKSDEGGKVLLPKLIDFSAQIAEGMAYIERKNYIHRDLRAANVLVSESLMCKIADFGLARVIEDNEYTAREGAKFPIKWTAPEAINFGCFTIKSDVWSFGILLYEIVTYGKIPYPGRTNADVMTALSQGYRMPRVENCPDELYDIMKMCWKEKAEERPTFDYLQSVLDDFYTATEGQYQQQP
Chain of JAK1 (P23458 whole entry, species assumed): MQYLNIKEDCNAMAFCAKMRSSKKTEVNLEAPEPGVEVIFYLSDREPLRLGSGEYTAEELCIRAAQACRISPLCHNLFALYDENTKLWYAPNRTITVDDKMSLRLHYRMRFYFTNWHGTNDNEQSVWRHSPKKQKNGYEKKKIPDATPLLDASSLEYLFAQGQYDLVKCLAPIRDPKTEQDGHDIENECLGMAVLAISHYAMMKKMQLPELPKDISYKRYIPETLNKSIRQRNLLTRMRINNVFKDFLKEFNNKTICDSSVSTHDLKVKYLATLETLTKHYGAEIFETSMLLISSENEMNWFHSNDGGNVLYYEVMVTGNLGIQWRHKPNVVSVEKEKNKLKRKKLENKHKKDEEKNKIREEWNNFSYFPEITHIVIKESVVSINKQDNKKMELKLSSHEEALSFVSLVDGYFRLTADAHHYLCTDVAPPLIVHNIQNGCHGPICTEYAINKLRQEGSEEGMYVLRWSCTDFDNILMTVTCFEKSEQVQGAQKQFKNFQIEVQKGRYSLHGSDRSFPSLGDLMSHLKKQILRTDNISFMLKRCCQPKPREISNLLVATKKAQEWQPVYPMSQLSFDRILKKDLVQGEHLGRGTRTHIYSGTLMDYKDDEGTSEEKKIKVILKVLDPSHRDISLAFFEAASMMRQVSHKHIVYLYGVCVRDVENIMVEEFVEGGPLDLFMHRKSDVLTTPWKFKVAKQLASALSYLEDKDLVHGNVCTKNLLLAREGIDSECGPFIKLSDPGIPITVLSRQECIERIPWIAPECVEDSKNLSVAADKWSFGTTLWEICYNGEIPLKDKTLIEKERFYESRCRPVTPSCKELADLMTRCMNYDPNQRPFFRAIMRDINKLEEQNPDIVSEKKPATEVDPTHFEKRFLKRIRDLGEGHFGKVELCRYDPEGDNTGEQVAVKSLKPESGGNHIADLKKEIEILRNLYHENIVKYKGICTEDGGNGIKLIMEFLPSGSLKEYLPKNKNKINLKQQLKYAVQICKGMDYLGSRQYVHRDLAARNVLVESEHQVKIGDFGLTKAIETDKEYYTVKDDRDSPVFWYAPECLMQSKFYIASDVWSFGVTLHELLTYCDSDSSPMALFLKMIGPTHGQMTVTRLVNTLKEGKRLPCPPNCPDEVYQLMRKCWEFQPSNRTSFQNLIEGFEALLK
Chain of FGFR3 (P22607 23-806, species assumed): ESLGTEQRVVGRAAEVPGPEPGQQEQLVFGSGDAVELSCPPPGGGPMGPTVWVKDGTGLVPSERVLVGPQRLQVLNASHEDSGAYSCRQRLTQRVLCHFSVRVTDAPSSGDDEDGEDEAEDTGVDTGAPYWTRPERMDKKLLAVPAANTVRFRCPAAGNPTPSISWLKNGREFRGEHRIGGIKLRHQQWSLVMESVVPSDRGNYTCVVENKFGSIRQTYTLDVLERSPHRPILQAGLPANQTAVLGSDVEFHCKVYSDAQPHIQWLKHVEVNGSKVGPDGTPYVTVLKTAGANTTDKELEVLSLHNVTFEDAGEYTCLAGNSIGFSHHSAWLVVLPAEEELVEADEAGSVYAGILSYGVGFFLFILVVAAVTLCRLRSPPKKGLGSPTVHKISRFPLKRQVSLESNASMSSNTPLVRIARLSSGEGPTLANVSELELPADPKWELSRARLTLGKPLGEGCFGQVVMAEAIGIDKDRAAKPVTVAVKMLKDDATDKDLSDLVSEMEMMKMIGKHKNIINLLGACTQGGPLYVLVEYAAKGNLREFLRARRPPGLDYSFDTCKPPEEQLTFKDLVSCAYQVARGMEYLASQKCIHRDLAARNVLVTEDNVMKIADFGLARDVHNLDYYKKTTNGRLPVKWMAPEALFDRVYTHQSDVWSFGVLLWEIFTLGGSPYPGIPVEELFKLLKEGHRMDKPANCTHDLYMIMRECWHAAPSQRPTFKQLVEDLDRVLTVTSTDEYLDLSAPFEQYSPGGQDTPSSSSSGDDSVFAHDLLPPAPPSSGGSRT

C AYE AYE AYE K EYA EYA EYA K AYA EYE R (CAYEAYEAYEKEYAEYAEYAKAYAEYER; tyrosine kinase substrate peptide) [BRB1]
Signal to Noise ratio with BRB1 Peptide [1]: 24.7
Signal to Noise ratio with BRB1 Peptide [2]: 29.3
Signal to Noise ratio with BRB1 Peptide [3]: 24.2
Signal to Noise ratio with BRB1 Peptide [4]: 23.2
Signal to Noise ratio with BRB1 Peptide [5]: 33.1
Signal to Noise ratio with BRB1 Peptide [6]: 3.5
Signal to Noise ratio with BRB1 Peptide [7]: 1.5
Average Signal at 665 nm ([8]; Incubation 1 h after addition of antibodies): 134156
Average Signal at 665 nm ([8]; Incubation 18 h after addition of antibodies): 117226
% Decrease of average signal at 665 nm ([8]; Incubation 18 h versus 1 h): 12.6%
Average Signal at 665 nm ([8]; Incubation 24 h after addition of antibodies): 115534
% Decrease of average signal at 665 nm ([8]; Incubation 24 h versus 1 h): 13.9%
% Decrease of average signal at 665 nm ([8]; Incubation 24 h versus 1 h, listed as SEQ ID No. 3): 14%
Stability of specific TR-FRET signal at 665 nm over time ([8]; after addition of europium-labeled anti-phospho-tyrosine antibody): more stable
Signal to Noise ratio with BRB1 Peptide [9]: 13.7
Number of kinases out of 83 that phosphorylated the peptide with signal to noise ratio of >3 [10]: 72
Percentage of 83 kinases that phosphorylated the peptide with signal to noise ratio of >3 [10]: 87%
Signal to Noise ratio with BRB1 Peptide [11]: 24.4
